The term Km denotes the concentration of substrate that gives half-maximal velocity. By kcat is commonly meant the maximal rate divided by the concentration of active sites.

From PMC4286497 come the findings set out here.

In the series the test system is Nc1ncnc2c1ncn2[C@@H]1O[C@H](COP(=O)(O)OP(=O)(O)OP(=O)(O)O)[C@@H](O)[C@H]1O. Kind of series: purified protein.
Where [1] appears, read: saturating taxol-stabilized MTs, no ATPγS, pH 7.2, 2 mM MgCl2.

Turning to “WT dynein (GST-Dyn1_331kD) (Saccharomyces cerevisiae S288C; K2424A)”, the Km (pH 7.2) amounted to 38 ± 3 µM. Regarding “WT dynein (GST-Dyn1_331kD) (Saccharomyces cerevisiae S288C)”, under setting [1], the Km came out at 46 ± 5 µM and the kcat amounted to 17.0 ± 0.5 s⁻¹.
